Reference: patent US20250270332A1 (ANTLERA THERAPEUTICS, published 2025)
Changes are numbered by the printed parent chain.

T1: FZD4 recombinant extracellular domain, Fc fusion (FZD-Fc) (UniProt Q9ULV1 37-180)
T1 construct: extracellular domain; also called FZD4 ECD; not shown: Fc part of the FZD-Fc protein
T1 sequence (looked up): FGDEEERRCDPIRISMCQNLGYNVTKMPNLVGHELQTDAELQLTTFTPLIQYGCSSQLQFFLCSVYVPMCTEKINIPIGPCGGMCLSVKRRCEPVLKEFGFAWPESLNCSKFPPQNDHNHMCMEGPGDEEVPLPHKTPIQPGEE

B1: FZD4 Agonist ANT20 (bispecific antibody)
heavy 1: EVQLVESGGGLVQPGGSLRLSCAASGFDFTAYAMHWVRQAPGKGLEWVASIYPSGGYTAYADSVKGRFTISADTSKNTAYLQMNSLRAEDTAVYYCARRSYYFALDYWGQGTLVTVSSGGGGSDIQMTQSPSSLSASVGDRVTITCRASQSVSSAVAWYQQKPGKAPKLLIYSASSLYSGVPSRFSGSRSGTDFTLTISSLQPEDFATYYCQQASYAPITFGQGTKVEIKGGGGSGGGGSEPKTSDKTHTCPPCPAPELLGGPSVFLFPPKPKDTLMISRTPEVTCVVVAVSHEDPEVKFNWYVDGVEVHNAKTKPREEQYGSTYRVVSVLTVLHQDWLNGKEYKCKVSNKALPAPIEKTISKAKGQPREPMVFDLPPSREEMTKNQVSLWCMVKGFYPSDIAVEWESNGQPENNYKTTPPVLDSDGSFFLYSKLTVDKSRWQQGNVFSCSVMHEALHNHYTQKSLSLSPGKGGGSGGGSGGGSGGGSGSTGEVQLVESGGGLVQPGGSLRLSCAASGFTLSSYSMHWVRQAPGKGLEWVAYISSYYGYTYYADSVKGRFTISADTSKNTAYLQMNSLRAEDTAVYYCARPAPGHWGFDYWGQGTLVTVSSASTKGPSVFPLAPSSKSTSGGTAALGCLVKDYFPEPVTVSWNSGALTSGVHTFPAVLQSSGLYSLSSVVTVPSSSLGTQTYICNVNHKPSNTKVDKKVEPKSCDKTHT
heavy 2: EVQLVESGGGLVQPGGSLRLSCAASGFNLSYYYMHWVRQAPGKGLEWVASIYSSYGYTYYADSVKGRFTISADTSKNTAYLQMNSLRAEDTAVYYCARWSHVSGHYSGMDYWGQGTLVTVSSGGGGSDIQMTQSPSSLSASVGDRVTITCRASQSVSSAVAWYQQKPGKAPKLLIYSASDLYSGVPSRFSGSRSGTDFTLTISSLQPEDFATYYCQQYAGAGLITFGQGTKVEIKGGGGSGGGGSEPKSSDKTHTCPPCPAPELLGGPSVFLFPPKPKDTLMISRTPEVTCVVVAVSHEDPEVKFNWYVDGVEVHNAKTKPREEQYGSTYRVVSVLTVLHQDWLNGKEYKCKVSNKALPAPIEKTISKAKGQPREPQVYTLPPIRELMTSNQVSLSCAVKGFYPSDIAVEWESNGQPENNYKTTPPVLDSDGSFFLVSKLTVDKSRWQQGNVFSCSVMHEALHNHYTQKSLSLSPGKGGGSGGGSGGGSGGGSGSTGEVQLVESGGGLVQPGGSLRLSCAASGFTLSSYSMHWVRQAPGKGLEWVAYISSYYGYTYYADSVKGRFTISADTSKNTAYLQMNSLRAEDTAVYYCARPAPGHWGFDYWGQGTLVTVSSASTKGPSVFPLAPSSKSTSGGTAALGCLVKDYFPEPVTVSWNSGALTSGVHTFPAVLQSSGLYSLSSVVTVPSSSLGTQTYICNVNHKPSNTKVDKKVEPKSCDKTHT
light: DIQMTQSPSSLSASVGDRVTITCRASQSVSSAVAWYQQKPGKAPKLLIYSASSLYSGVPSRFSGSRSGTDFTLTISSLQPEDFATYYCQQWYYAPITFGQGTKVEIKRTVAAPSVFIFPPSDEQLKSGTASVVCLLNNFYPREAKVQWKVDNALQSGNSQESVTEQDSKDSTYSLSSTLTLSKADYEKHKVYACEVTHQGLSSPVTKSFNRGEC
notes: Diabody-Fc-Fab format
B2: FZD4 Agonist ANT39 (bispecific antibody, human IgG1, kappa, N297G)
heavy 1: EVQLVESGGGLVQPGGSLRLSCAASGFDFTAYAMHWVRQAPGKGLEWVASIYPSGGYTAYADSVKGRFTISADTSKNTAYLQMNSLRAEDTAVYYCARRSYYFALDYWGQGTLVTVSSGGGGSDIQMTQSPSSLSASVGDRVTITCRASQSVSSAVAWYQQKPGKAPKLLIYSASSLYSGVPSRFSGSRSGTDFTLTISSLQPEDFATYYCQQYWAYYSPITFGQGTKVEIKGGGGSGGGGSEPKTSDKTHTCPPCPAPELLGGPSVFLFPPKPKDTLMISRTPEVTCVVVAVSHEDPEVKFNWYVDGVEVHNAKTKPREEQYGSTYRVVSVLTVLHQDWLNGKEYKCKVSNKALPAPIEKTISKAKGQPREPMVFDLPPSREEMTKNQVSLWCMVKGFYPSDIAVEWESNGQPENNYKTTPPVLDSDGSFFLYSKLTVDKSRWQQGNVFSCSVMHEALHNHYTQKSLSLSPGKGGGSGGGSGGGSGGGSGSTGEVQLVESGGGLVQPGGSLRLSCAASGFTLSSYSMHWVRQAPGKGLEWVAYISSYDSITDYADSVKGRFTISADTSKNTAYLQMNSLRAEDTAVYYCARPAVGHMAFDYWGQGTLVTVSSASTKGPSVFPLAPSSKSTSGGTAALGCLVKDYFPEPVTVSWNSGALTSGVHTFPAVLQSSGLYSLSSVVTVPSSSLGTQTYICNVNHKPSNTKVDKKVEPKSCDKTHT
heavy 2: EVQLVESGGGLVQPGGSLRLSCAASGFDFSSSSIHWVRQAPGKGLEWVASISSSYGYTYYADSVKGRFTISADTSKNTAYLQMNSLRAEDTAVYYCARSWAMDYWGQGTLVTVSSGGGGSDIQMTQSPSSLSASVGDRVTITCRASQSVSSAVAWYQQKPGKAPKLLIYSASDLYSGVPSRFSGSRSGTDFTLTISSLQPEDFATYYCQQYAGAGLITFGQGTKVEIKGGGGSGGGGSEPKSSDKTHTCPPCPAPELLGGPSVFLFPPKPKDTLMISRTPEVTCVVVAVSHEDPEVKFNWYVDGVEVHNAKTKPREEQYGSTYRVVSVLTVLHQDWLNGKEYKCKVSNKALPAPIEKTISKAKGQPREPQVYTLPPIRELMTSNQVSLSCAVKGFYPSDIAVEWESNGQPENNYKTTPPVLDSDGSFFLVSKLTVDKSRWQQGNVFSCSVMHEALHNHYTQKSLSLSPGKGGGSGGGSGGGSGGGSGSTGEVQLVESGGGLVQPGGSLRLSCAASGFTLSSYSMHWVRQAPGKGLEWVAYISSYDSITDYADSVKGRFTISADTSKNTAYLQMNSLRAEDTAVYYCARPAVGHMAFDYWGQGTLVTVSSASTKGPSVFPLAPSSKSTSGGTAALGCLVKDYFPEPVTVSWNSGALTSGVHTFPAVLQSSGLYSLSSVVTVPSSSLGTQTYICNVNHKPSNTKVDKKVEPKSCDKTHT
light: B1 light with Y93N
notes: Diabody-Fc-Fab format, DANG Fc
B3: FZD4 Agonist ANT21 (bispecific antibody)
heavy 1: EVQLVESGGGLVQPGGSLRLSCAASGFNFSSSSIHWVRQAPGKGLEWVASISSSYGYTYYADSVKGRFTISADTSKNTAYLQMNSLRAEDTAVYYCARGGSGVSHYGSVYYSWWALDYWGQGTLVTVSSGGGGSDIQMTQSPSSLSASVGDRVTITCRASQSVSSAVAWYQQKPGKAPKLLIYSASSLYSGVPSRFSGSRSGTDFTLTISSLQPEDFATYYCQQYWAYYSPITFGQGTKVEIKGGGGSGGGGSEPKTSDKTHTCPPCPAPELLGGPSVFLFPPKPKDTLMISRTPEVTCVVVAVSHEDPEVKFNWYVDGVEVHNAKTKPREEQYGSTYRVVSVLTVLHQDWLNGKEYKCKVSNKALPAPIEKTISKAKGQPREPMVFDLPPSREEMTKNQVSLWCMVKGFYPSDIAVEWESNGQPENNYKTTPPVLDSDGSFFLYSKLTVDKSRWQQGNVFSCSVMHEALHNHYTQKSLSLSPGKGGGSGGGSGGGSGGGSGSTGEVQLVESGGGLVQPGGSLRLSCAASGFTLSSYSMHWVRQAPGKGLEWVAYISSYYGYTYYADSVKGRFTISADTSKNTAYLQMNSLRAEDTAVYYCARPAPGHWGFDYWGQGTLVTVSSASTKGPSVFPLAPSSKSTSGGTAALGCLVKDYFPEPVTVSWNSGALTSGVHTFPAVLQSSGLYSLSSVVTVPSSSLGTQTYICNVNHKPSNTKVDKKVEPKSCDKTHT
heavy 2: EVQLVESGGGLVQPGGSLRLSCAASGFNFSSSSIHWVRQAPGKGLEWVASISSSYGYTYYADSVKGRFTISADTSKNTAYLQMNSLRAEDTAVYYCARSWAMDYWGQGTLVTVSSGGGGSDIQMTQSPSSLSASVGDRVTITCRASQSVSSAVAWYQQKPGKAPKLLIYSASSLYSGVPSRFSGSRSGTDFTLTISSLQPEDFATYYCQQSSYSLITFGQGTKVEIKGGGGSGGGGSEPKSSDKTHTCPPCPAPELLGGPSVFLFPPKPKDTLMISRTPEVTCVVVAVSHEDPEVKFNWYVDGVEVHNAKTKPREEQYGSTYRVVSVLTVLHQDWLNGKEYKCKVSNKALPAPIEKTISKAKGQPREPQVYTLPPIRELMTSNQVSLSCAVKGFYPSDIAVEWESNGQPENNYKTTPPVLDSDGSFFLVSKLTVDKSRWQQGNVFSCSVMHEALHNHYTQKSLSLSPGKGGGSGGGSGGGSGGGSGSTGEVQLVESGGGLVQPGGSLRLSCAASGFTLSSYSMHWVRQAPGKGLEWVAYISSYYGYTYYADSVKGRFTISADTSKNTAYLQMNSLRAEDTAVYYCARPAPGHWGFDYWGQGTLVTVSSASTKGPSVFPLAPSSKSTSGGTAALGCLVKDYFPEPVTVSWNSGALTSGVHTFPAVLQSSGLYSLSSVVTVPSSSLGTQTYICNVNHKPSNTKVDKKVEPKSCDKTHT
light: B1 light
notes: Diabody-Fc-Fab format

Target: T1, FZD4 recombinant extracellular domain, …
Assay: BLI (Octet), FZD-Fc captured on AHQ sensors, agonist in solution; apparent affinity

Row | Binder | Kd [nM]
1 | B1 | 0.7
2 | B2 | 0.3
3 | B3 | 2.2
